Experimental data from patent US20110300561.

What was measured:
Lys-Leu = biological target: T1, Lys-Leu
T1 chain: KL

Ser-His = biological target: T2, Ser-His
T2 chain: SH

Phe-Val = biological target: T3, Phe-Val
T3 chain: FV

Asp-Lys = biological target: T4, Asp-Lys
T4 chain: DK

Ala-Ser = biological target: T5, Ala-Ser
T5 chain: AS

Gly-Ser = biological target: T6, Gly-Ser
T6 chain: GS

Arg-Ala = biological target: T7, Arg-Ala
T7 chain: RA

Arg-Ile = biological target: T8, Arg-Ile
T8 chain: RI

His-Leu = biological target: T9, His-Leu
T9 chain: HL

Arg-Val = biological target: T10, Arg-Val
T10 chain: RV

Lys-Phe = biological target: T11, Lys-Phe
T11 chain: KF

Gly-Lys = biological target: T12, Gly-Lys
T12 chain: GK

Arg-Leu = biological target: T13, Arg-Leu
T13 chain: RL

B1: Staphylococcus aureus N-Succinyl-L,L-DAP Desuccinylase (DapE) (protein)
chain: MWKEKVQQYEDQIINDLKGLLAIESVRDDAKASEDAPVGPGPRKALDYMYEIAHRDGFTTHDVDHIAGRIEAGKGNDVLGILCHVDVVPAGDGWDSNPFEPVVTEDAIIARGTLDDKGPTIAAYYAIKILEDMNVDWKKRIHMIIGTDEESDWKCTDRYFKTEEMPTLGFAPDAEFPCIHGEKGITTFDLVQNKLTEDQDEPDYELITFKSGERYNMVPDHAEARVLVKENMTDVIQDFEYFLEQNHLQGDSTVDSGILVLTVEGKAVHGMDPSIGVNAGLYLLKFLASLNLDNNAQAFVAFSNRYLFNSDFGEKMGMKFHTDVMGDVTTNIGVITYDNENAGLFGINLRYPEGFEFEKAMDRFANEIQQYGFEVKLGKVQPPHYVDKNDPFVQKLVTAYRNQTNDMTEPYTIGGGTYARNLDKGVAFGAMFSDSEDLMHQKNEYITKKQLFNATSIYLEAIYSLCVEE
For B1, the “Activity (S. aureus DapE Qualitative Dipeptidase Activity, TLC assay)” value (“Activity” below) (Lys-Leu) was “++”, the “Activity” value (Ser-His) was “++” and the “Activity” value (Phe-Val) was “+++”. The “Activity” value (Asp-Lys) was “+”, the “Activity” value (Ala-Ser) was “+” and the “Activity” value (Gly-Ser) was “+”. For the same protein, the “Activity” value (Arg-Ala) was “+++”, the “Activity” value (Arg-Ile) was “+++” and the “Activity” value (His-Leu) was “+”. The “Activity” value (Arg-Val) was “+++”, the “Activity” value (Lys-Phe) was “++” and the “Activity” value (Gly-Lys) was “+”. The “Activity” value (Arg-Leu) was “+++”.
